Source: US10947289B2, “Glyco-modified atrial natriuretic peptide” (priority 2013, dated 2021)

assay: Detection of test substance in rat plasma by LC-MS/MS (Test Example 3); assay type: in vivo; conditions: rat plasma, 100 nmol/kg i.v., LC-MS/MS; time at which the test substance was finally detected
Method: Before the administration and 15, 30, 60, 90, 120, 180, and 240 minutes after the administration, blood was sampled (200 μL/sampling) over time from the jugular vein. The blood samples were immediately left on ice.
The collected blood samples were centrifuged at 5000 rpm at 4° C. for 5 minutes by use of a centrifuge (Sigma 4K15, rotor: Nr12130-H). The separated plasma samples were divided into two types (samples for PK measurement and for cGMP measurement) and stored at −80° C. until measurement.
An internal standard (20 μL (500 nM) of a stable isotope of hANP) and an acetic acid mixed solvent (AcOH/distilled water/DMSO=5/3/2, v/v/v) were added to 50 μL of each rat plasma sample prepared in (1) and then mixed therewith. The mixture was transferred to Amicon Ultra-0.5 50K (Millipore Corp., MA) and centrifuged at 14000 rpm at 15° C. for 30 minutes. The obtained filtrate was transferred to Amicon Ultra-0.5 3K (Millipore Corp., MA) and centrifuged again under the aforementioned conditions. The solution remaining on the filter was recovered and transferred to a 96-well deep well plate. The content of the test substance was measured by LC-MS/MS (LC: Shimadzu LC-10ADVP (Shimadzu Corp.), MS/MS: API 4000 QTrap (AB SCIEX)) to calculate the concentration in plasma. The time at which the test substance was finally detected is shown in the rightmost column of Table 2.

Row | SMILES | Maximum time of detection after administration
1 | CC[C@H](C)[C@@H]1NC(=O)[C@H](CCCNC(=N)N)NC(=O)[C@H](CC(=O)O)NC(=O)[C@H](CCSC)NC(=O)[C@H](CCCNC(=N)N)NC(=O)CNC(=O)CNC(=O)[C@H](Cc2ccccc2)NC(=O)[C@@H](NC(=O)[C@H](CO)NC(=O)[C@H](CO)NC(=O)[C@H](CCCNC(=N)N)NC(=O)[C@H](CCCNC(=N)N)NC(=O)[C@H](CC(C)C)NC(=O)[C@H](CO)NC(=O)CCc2cn(CCO[C@@H]3O[C@H](CO)[C@@H](O[C@@H]4O[C@H](CO)[C@@H](O[C@@H]5O[C@H](CO[C@H]6O[C@H](CO)[C@@H](O)[C@H](O)[C@@H]6O[C@@H]6O[C@H](CO)[C@@H](O[C@@H]7O[C@H](CO[C@]8(C(=O)O)C[C@H](O)[C@@H](NC(C)=O)[C@H]([C@H](O)[C@H](O)CO)O8)[C@H](O)[C@H](O)[C@H]7O)[C@H](O)[C@H]6NC(C)=O)[C@@H](O)[C@H](O[C@H]6O[C@H](CO)[C@@H](O)[C@H](O)[C@@H]6O[C@@H]6O[C@H](CO)[C@@H](O[C@@H]7O[C@H](CO[C@]8(C(=O)O)C[C@H](O)[C@@H](NC(C)=O)[C@H]([C@H](O)[C@H](O)CO)O8)[C@H](O)[C@H](O)[C@H]7O)[C@H](O)[C@H]6NC(C)=O)[C@@H]5O)[C@H](O)[C@H]4NC(C)=O)[C@H](O)[C@H]3NC(C)=O)nn2)CSSC[C@@H](C(=O)N[C@@H](CC(N)=O)C(=O)N[C@@H](CO)C(=O)N[C@@H](Cc2ccccc2)C(=O)N[C@@H](CCCNC(=N)N)C(=O)N[C@@H](Cc2ccc(O)cc2)C(=O)O)NC(=O)CNC(=O)[C@H](CC(C)C)NC(=O)CNC(=O)[C@H](CO)NC(=O)[C@H](CCC(N)=O)NC(=O)[C@H](C)NC(=O)CNC1=O [Compound 2-12, SG-triazole-hANP(1-28)] | 1.5 h
2 | CC[C@H](C)[C@@H]1NC(=O)[C@H](CCCNC(=N)N)NC(=O)[C@H](CC(=O)O)NC(=O)[C@H](CCSC)NC(=O)[C@H](CCCNC(=N)N)NC(=O)CNC(=O)CNC(=O)[C@H](Cc2ccccc2)NC(=O)[C@@H](NC(=O)[C@H](CO)NC(=O)[C@H](CO)NC(=O)[C@H](CCCNC(=N)N)NC(=O)[C@H](CCCNC(=N)N)NC(=O)[C@H](CC(C)C)NC(=O)[C@H](CO)NC(=O)CO[C@@H]2O[C@H](CO)[C@@H](O[C@@H]3O[C@H](CO)[C@@H](O[C@@H]4O[C@H](CO[C@H]5O[C@H](CO)[C@@H](O)[C@H](O)[C@@H]5O)[C@@H](O)[C@H](O[C@H]5O[C@H](CO)[C@@H](O)[C@H](O)[C@@H]5O)[C@@H]4O)[C@H](O)[C@H]3NC(C)=O)[C@H](O)[C@H]2NC(C)=O)CSSC[C@@H](C(=O)N[C@@H](CC(N)=O)C(=O)N[C@@H](CO)C(=O)N[C@@H](Cc2ccccc2)C(=O)N[C@@H](CCCNC(=N)N)C(=O)N[C@@H](Cc2ccc(O)cc2)C(=O)O)NC(=O)CNC(=O)[C@H](CC(C)C)NC(=O)CNC(=O)[C@H](CO)NC(=O)[C@H](CCC(N)=O)NC(=O)[C@H](C)NC(=O)CNC1=O [Compound 2-26, AG(5)-hANP(1-28)] | 2 h
3 | CC[C@H](C)[C@@H]1NC(=O)[C@H](CCCNC(=N)N)NC(=O)[C@H](CC(=O)O)NC(=O)[C@H](CCSC)NC(=O)[C@H](CCCNC(=N)N)NC(=O)CNC(=O)CNC(=O)[C@H](Cc2ccccc2)NC(=O)[C@@H](NC(=O)[C@H](CO)NC(=O)[C@H](CO)NC(=O)[C@H](CCCNC(=N)N)NC(=O)[C@H](CCCNC(=N)N)NC(=O)[C@H](CC(C)C)NC(=O)[C@H](CO)NC(=O)CCOCCOCCOCCOCCNC(=O)CO[C@@H]2O[C@H](CO)[C@@H](O[C@@H]3O[C@H](CO)[C@@H](O[C@@H]4O[C@H](CO[C@H]5O[C@H](CO)[C@@H](O)[C@H](O)[C@@H]5O[C@@H]5O[C@H](CO)[C@@H](O[C@@H]6O[C@H](CO[C@]7(C(=O)O)C[C@H](O)[C@@H](NC(C)=O)[C@H]([C@H](O)[C@H](O)CO)O7)[C@H](O)[C@H](O)[C@H]6O)[C@H](O)[C@H]5NC(C)=O)[C@@H](O)[C@H](O[C@H]5O[C@H](CO)[C@@H](O)[C@H](O)[C@@H]5O[C@@H]5O[C@H](CO)[C@@H](O[C@@H]6O[C@H](CO[C@]7(C(=O)O)C[C@H](O)[C@@H](NC(C)=O)[C@H]([C@H](O)[C@H](O)CO)O7)[C@H](O)[C@H](O)[C@H]6O)[C@H](O)[C@H]5NC(C)=O)[C@@H]4O)[C@H](O)[C@H]3NC(C)=O)[C@H](O)[C@H]2NC(C)=O)CSSC[C@@H](C(=O)N[C@@H](CC(N)=O)C(=O)N[C@@H](CO)C(=O)N[C@@H](Cc2ccccc2)C(=O)N[C@@H](CCCNC(=N)N)C(=O)N[C@@H](Cc2ccc(O)cc2)C(=O)O)NC(=O)CNC(=O)[C@H](CC(C)C)NC(=O)CNC(=O)[C@H](CO)NC(=O)[C@H](CCC(N)=O)NC(=O)[C@H](C)NC(=O)CNC1=O [Compound 2-29, SG-PEG(3)-hANP(1-28)] | 2 h
4 | CC[C@H](C)[C@@H]1NC(=O)[C@H](CCCNC(=N)N)NC(=O)[C@H](CC(=O)O)NC(=O)[C@H](CCSC)NC(=O)[C@H](CCCNC(=N)N)NC(=O)CNC(=O)CNC(=O)[C@H](Cc2ccccc2)NC(=O)[C@@H](NC(=O)[C@H](CO)NC(=O)[C@H](CO)NC(=O)[C@H](CCCNC(=N)N)NC(=O)[C@H](CCCNC(=N)N)NC(=O)[C@H](CC(C)C)NC(=O)[C@H](CO)NC(=O)CCOCCOCCOCCOCCOCCOCCOCCOCCOCCOCCOCCOCCNC(=O)CO[C@@H]2O[C@H](CO)[C@@H](O[C@@H]3O[C@H](CO)[C@@H](O[C@@H]4O[C@H](CO[C@H]5O[C@H](CO)[C@@H](O)[C@H](O)[C@@H]5O[C@@H]5O[C@H](CO)[C@@H](O[C@@H]6O[C@H](CO[C@]7(C(=O)O)C[C@H](O)[C@@H](NC(C)=O)[C@H]([C@H](O)[C@H](O)CO)O7)[C@H](O)[C@H](O)[C@H]6O)[C@H](O)[C@H]5NC(C)=O)[C@@H](O)[C@H](O[C@H]5O[C@H](CO)[C@@H](O)[C@H](O)[C@@H]5O[C@@H]5O[C@H](CO)[C@@H](O[C@@H]6O[C@H](CO[C@]7(C(=O)O)C[C@H](O)[C@@H](NC(C)=O)[C@H]([C@H](O)[C@H](O)CO)O7)[C@H](O)[C@H](O)[C@H]6O)[C@H](O)[C@H]5NC(C)=O)[C@@H]4O)[C@H](O)[C@H]3NC(C)=O)[C@H](O)[C@H]2NC(C)=O)CSSC[C@@H](C(=O)N[C@@H](CC(N)=O)C(=O)N[C@@H](CO)C(=O)N[C@@H](Cc2ccccc2)C(=O)N[C@@H](CCCNC(=N)N)C(=O)N[C@@H](Cc2ccc(O)cc2)C(=O)O)NC(=O)CNC(=O)[C@H](CC(C)C)NC(=O)CNC(=O)[C@H](CO)NC(=O)[C@H](CCC(N)=O)NC(=O)[C@H](C)NC(=O)CNC1=O [Compound 2-30, SG-PEG(11)-hANP(1-28)] | 4 h
